# Results reported in article PMC7679967 (Protein Science : A Publication of the Protein Society, 2020).
# B1: Hop112a (Hop aa. 1-352; TPR1, DP1 and TPR2A) (domain or fragment)
# chain: not shown
# Target: human Hsp90β (HSP90AB1) (human, UniProt P08238 1-724)
# Assay: ITC
# Chain of human Hsp90β (HSP90AB1) (P08238 whole entry): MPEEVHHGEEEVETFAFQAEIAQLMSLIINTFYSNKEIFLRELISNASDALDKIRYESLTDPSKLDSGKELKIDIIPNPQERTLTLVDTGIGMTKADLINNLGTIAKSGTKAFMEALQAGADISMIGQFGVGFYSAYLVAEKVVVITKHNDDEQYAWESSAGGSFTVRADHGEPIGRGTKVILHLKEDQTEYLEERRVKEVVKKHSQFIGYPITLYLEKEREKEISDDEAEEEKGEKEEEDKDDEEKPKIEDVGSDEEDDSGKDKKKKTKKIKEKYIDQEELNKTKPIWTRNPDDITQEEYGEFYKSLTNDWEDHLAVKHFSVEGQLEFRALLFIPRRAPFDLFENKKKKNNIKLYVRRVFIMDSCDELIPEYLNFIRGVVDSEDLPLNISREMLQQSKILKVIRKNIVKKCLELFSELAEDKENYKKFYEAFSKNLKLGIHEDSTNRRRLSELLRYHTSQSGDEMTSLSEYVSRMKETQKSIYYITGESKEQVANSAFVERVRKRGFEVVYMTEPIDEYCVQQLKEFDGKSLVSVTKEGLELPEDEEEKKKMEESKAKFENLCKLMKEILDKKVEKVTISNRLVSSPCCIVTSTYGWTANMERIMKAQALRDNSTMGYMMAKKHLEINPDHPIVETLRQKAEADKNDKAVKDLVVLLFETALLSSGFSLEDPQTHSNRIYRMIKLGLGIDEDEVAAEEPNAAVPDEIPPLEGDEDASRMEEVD
binder,measurement,value
B1,Kd,3.59 µM
same,stoichiometry N,0.5
